Test [1] deals with T1, oligomerized biotinylated synthetic human Aβ1-42 peptide (human, UniProt P05067 672-713, biotinylated (position not given)).
Test [2] concerns the target T1, oligomerized biotinylated synthetic …. The source holds these as a separate data set.

Like-named read-outs stand apart in the source and are kept apart here.

B1: human LilrB2 (leukocyte immunoglobulin-like receptor B2) expressed on HEK293 cells (receptor, UniProt Q8N423 22-597, looked up)
chain: QTGTIPKPTLWAEPDSVITQGSPVTLSCQGSLEAQEYRLYREKKSASWITRIRPELVKNGQFHIPSITWEHTGRYGCQYYSRARWSELSDPLVLVMTGAYPKPTLSAQPSPVVTSGGRVTLQCESQVAFGGFILCKEGEDEHPQCLNSQPHARGSSRAIFSVGPVSPNRRWSHRCYGYDLNSPYVWSSPSDLLELLVPGVSKKPSLSVQPGPVMAPGESLTLQCVSDVGYDRFVLYKEGERDLRQLPGRQPQAGLSQANFTLGPVSRSYGGQYRCYGAHNLSSECSAPSDPLDILITGQIRGTPFISVQPGPTVASGENVTLLCQSWRQFHTFLLTKAGAADAPLRLRSIHEYPKYQAEFPMSPVTSAHAGTYRCYGSLNSDPYLLSHPSEPLELVVSGPSMGSSPPPTGPISTPGPEDQPLTPTGSDPQSGLGRHLGVVIGILVAVVLLLLLLLLLFLILRHRRQGKHWTSTQRKADFQHPAGAVGPEPTDRGLQWRSSPAADAQEENLYAAVKDTQPEDGVEMDTRAAASEAPQDVTYAQLHSLTLRRKATEPPPSQEREPPAEPSIYATLAIH
As usually defined, the Kd is the free concentration of one partner at which half of the binding sites on the other are occupied at equilibrium, for simple one-to-one binding. In the case of B1, the equilibrium dissociation constant (Kd) was found to be 206 ± 65 nM in test [1] and 250 nM in test [2].
